Laboratory results: article PMC8263732, “M1BP cooperates with CP190 to activate transcription at TAD borders and promote chromatin insulator activity” (Nature Communications, 2021)

T1: Suppressor of Hairy wing [Su(Hw)] (Drosophila (endogenous in 0-24 h Oregon …, UniProt P08970 1-941))
T1 construct: endogenous protein in embryonic nuclear extract; source: endogenous, nuclear extract of 0-24 h Drosophila embryos
T1 sequence (looked up): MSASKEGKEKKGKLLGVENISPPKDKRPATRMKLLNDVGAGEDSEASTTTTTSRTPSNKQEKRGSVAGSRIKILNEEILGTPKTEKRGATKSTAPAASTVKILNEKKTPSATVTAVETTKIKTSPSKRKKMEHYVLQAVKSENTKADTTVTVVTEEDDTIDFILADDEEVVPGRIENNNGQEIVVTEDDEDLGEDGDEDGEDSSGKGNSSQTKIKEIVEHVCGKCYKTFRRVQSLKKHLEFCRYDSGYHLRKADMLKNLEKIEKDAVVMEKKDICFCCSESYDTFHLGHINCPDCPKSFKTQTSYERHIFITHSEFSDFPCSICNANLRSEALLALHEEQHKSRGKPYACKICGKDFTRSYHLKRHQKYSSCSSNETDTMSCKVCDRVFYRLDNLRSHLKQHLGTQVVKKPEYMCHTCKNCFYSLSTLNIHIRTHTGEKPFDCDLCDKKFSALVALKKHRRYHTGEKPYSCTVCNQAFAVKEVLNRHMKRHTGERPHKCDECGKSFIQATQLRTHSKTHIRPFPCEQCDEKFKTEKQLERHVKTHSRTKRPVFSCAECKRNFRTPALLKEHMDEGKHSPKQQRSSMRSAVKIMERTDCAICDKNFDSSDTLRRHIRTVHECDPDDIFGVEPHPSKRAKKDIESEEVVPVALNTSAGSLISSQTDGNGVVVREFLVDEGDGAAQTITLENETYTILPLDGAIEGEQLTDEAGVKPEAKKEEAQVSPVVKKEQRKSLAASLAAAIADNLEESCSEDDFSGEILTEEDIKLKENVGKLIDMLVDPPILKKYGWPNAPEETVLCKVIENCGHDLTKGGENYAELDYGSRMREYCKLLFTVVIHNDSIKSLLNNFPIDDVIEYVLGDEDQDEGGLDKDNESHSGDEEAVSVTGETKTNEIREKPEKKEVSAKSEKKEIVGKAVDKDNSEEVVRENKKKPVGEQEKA

B1: Motif 1 Binding Protein (M1BP) (natural protein, UniProt Q9VHM3 1-418, looked up)
chain: MSKSALKHLKSTCRVCAKYASNKRSPKLFERSNTKMIDNIEALTGLRLENYGCLPDQICECCSMELASAVKLRERCIAAQRELLLGLTEEQRQGISAFYRAAVMGEDIVQTVKTPDDDEVYATYQEIVLEEPKEEIDDTKVEYDNTYYEVAEGHAGEDDAASLIEEADYDSIMAEDEEQQQTLELDEDTELIVGDVNDAYVYDSDDEVAVLDNVLDDEYEHENIVVKKCSLPPKPKVRSDDARRRGTGGVYICEQCGNHIKGRMAFELHCRRHRGDKQFGCELCQSRFCTTSELKRHMRKHTGERPFACKYCGRCFTDYTTRVKHERTHTNERPYVCGTCGKAFTTGYILKNHMLIHSGERAYRCELCDKSFMLPTHLSTHFRSGVHKRHLEKAEMKQVLEQEQKRELKEEEEDSLHI
notes: endogenous protein in embryonic nuclear extract; source: endogenous, nuclear extract of 0-24 h Drosophila embryos
B2: Modifier of mdg4 [Mod(mdg4)] 67.2 kDa isoform [Mod(mdg4)67.2] (natural protein, UniProt Q86B87 1-610, looked up)
chain: MADDEQFSLCWNNFNTNLSAGFHESLCRGDLVDVSLAAEGQIVKAHRLVLSVCSPFFRKMFTQMPSNTHAIVFLNNVSHSALKDLIQFMYCGEVNVKQDALPAFISTAESLQIKGLTDNDPAPQPPQESSPPPAAPHVQQQQIPAQRVQRQQPRASARYKIETVDDGLGDEKQSTTQIVIQTTAAPQATIVQQQQPQQAAQQIQSQQLQTGTTTTATLVSTNKRSAQRSSLTPASSSAGVKRSKTSTSANVMDPLDSTTETGATTTAQLVPQQITVQTSVVSAAEAKLHQQSPQQVRQEEAEYIDLPMELPTKSEPDYSEDHGDAAGDAEGTYVEDDTYGDMRYDDSYFTENEDAGNQTAANTSGGGVTATTSKAVVKQQSQNYSESSFVDTSGDQGNTEAQAATSASATKIPPRKRGRPKTKVEDQTPKPKLLEKLQAATLNEEASEPAVYASTTKGGVKLIFNGHLFKFSFRKADYSVFQCCYREHGEECKVRVVCDQKRVFPYEGEHVHFMQASDKSCLPSQFMPGESGVISSLSPSKELLMKNTTKLEEADDKEDEDFEEFEIQEIDEIELDEPEKTPAKEEEVDPNDFREKIKRRLQKALQNKKK
notes: Modifier of mdg4, the 67.2 kDa isoform, Drosophila; The gene has many isoforms; the 67.2 kDa isoform is meant; to be checked; source: endogenous, nuclear extract of 0-24 h Drosophila embryos
B3: Centrosomal protein 190 (CP190) (natural protein, UniProt Q24478 1-1096, looked up)
chain: MGEVKSVKVDNWGVFFLQKLQNFFNKTDYCDLTLQFRDNSQLKVHRLVLSACTDYFNVLEQTCEIVDDALIMPNEFQADVVVPIVNFMYTGTLEFELKMYGKLLRTAKEMNMTVLLKLLEAHRRTMENVNRQQRPPSPKGIRRRTVGQPSSGLPQQRVLGPSPQSRNVATPIAQRANTQRGSTGNTMSRTSGGSNRSPYGDSSNVKQEPTSPFEQLRKGYNNNKRPAQTSLLSPPSKKPSLEEVKEFAEQQRMRKQIAAEYGDNDPEYDGGMLYDDVHAGDDDDDDMPPQPSTSKQQSPQGTQTQLEHGSTTIILKQDSPSQTPTIIVKDSSNAKLNHTKIIAEVLRQYPHIVKGHKNIKLKIMPNTPAAPTEKSAPATVKPPANQSSATTSPHKKLHVSFKADKSTPLITAQQKAASSQQKSGTSQTTGNQGTGANPPANTAAAQKRRIDSKTMHALIAQGAENTTGPWLCLRCGVNGRPISIPSYRGFRRHLINTHKETIDPALCEHCGWRSVNNRELHFHMYMEHQTKSLLYTFAECALCNQSYRTKGELEAHINEVHTDDNKQQCIYCNKVFEQELQLYRHMKSYHKEQALEDGIIDETDEEFLGSQDEEEEAEGDEEQEPEQTGKVRILSDISLPATSAITVQQAQQEQLQEEDVEQVQQEVKFVGADGNEVELTDEQRKEILSQLNQQQAGATAGGVVMVLSEPEAEHVKQETDEKSLAGTEEEYDDSQIYSELGAADSVESAKKNIADESKESIDNLEWAENLIAESEEQSNKEPKSDKPRDDISEKLKELTGDWTEDENDDDVDDKPATAELASELANKDPEPTVHEEEDDIDLALQSLHKGPEEATEEKASEESVTSADDAVDAVPNINSQPEKMDVDSEAADEKASKAEVQIKKEAELENDQEEFIKEDSPIPHSDSVAELREAVTASEGEDDVHLEADNIRKELLDELIAEAEKPDQEKDIVQSEENATTEALDRSVTDEDDLVPPTQVSTEQMEIDEPAAEKAAENNEDTRTADEKEAVEDKPNQTQDVTTAEKPTLESAKAGDEATSGEAASVDKVKSLISEWGDDDEDEDENGVSAAAKEEL
notes: Centrosomal protein 190 (CP190), universal insulator protein of Drosophila; endogenous protein in embryonic nuclear extract; source: endogenous, nuclear extract of 0-24 h Drosophila embryos

Key:
Assay in all cases: co-IP; 500 ug nuclear extract of 0-24 h Drosophila embryos incubated overnight at 4 C with antiserum (anti-Su(Hw), anti-CP190, anti-Mod(mdg4)67.2 or anti-M1BP; normal serum as control) cross-linked to Protein A or G Sepharose; washed twice with HBSMT and once with HBSM; western blotting; efficiency as percent of total input protein
Conditions in all cases: partners not purified
[1] = target: B2
[2] = target: T1, Suppressor of Hairy wing [Su(Hw)]
[3] = target: B3
[4] = target: B1

percent of total protein immunoprecipitated with anti-Mod(mdg4)67.2 [1]	percent of total protein immunoprecipitated with anti-Su(Hw) [2]	percent of total protein immunoprecipitated with anti-CP190 [3]	percent of total protein immunoprecipitated with anti-M1BP [4]	Binder
3%	5.3%	3.8%	–	B1
–	1.9%	8.2%	1.4%	B2
11%	5.2%	–	3.8%	B3
